Results taken from PMC3793974, “Solution NMR Structure and Histone Binding of the PHD Domain of Human MLL5” (PLoS ONE, 2013).
Blank lines part the entries; values can stand above or below the binder they belong to. Where no end group is shown, it is not given here. Me3 = trimethyl-lysine; Me2 = dimethyl-lysine

Target: T1, PHD domain of human MLL5 (Ser109-Asp188) (human, UniProt Q8IZD2 109-188, 15N-labelled in the NMR titration)
T1 construct: Mixed Lineage Leukemia 5 (MLL5), human, PHD finger, residues 109-188, 80 residues; Cloned into the vector pET28a-MHL (GenBank EF456735 is the vector's id); The tag is detected with anti-His in the peptide array; also called MLL5PHD; MLL5 PHD finger; source: E. coli BL21 (DE3) Codon plus RIL, purified (Ni column, Superdex200, Source 30Q; for NMR 13C/15N-labelled from minimal media, Ni-NTA)
T1 sequence (looked up): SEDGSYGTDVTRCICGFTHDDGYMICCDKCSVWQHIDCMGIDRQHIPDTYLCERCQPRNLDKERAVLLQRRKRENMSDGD
Assay: fluorescence polarisation; 40 nM fluorescein-labelled peptide, MLL5PHD titrated (low to high micromolar); 20 mM Tris-HCl pH 7.5, 50 mM NaCl, 0.01% Triton X-100; 384-well plates
Conditions: both partners purified

Kd: ~16 µM
B1: H3K4me3 peptide labelled with fluorescein (peptide)
chain: ARTK(Me3)QTARKSTGGKA
modifications: not fully specified (N-terminus); also: fluorescein label, C- or N-terminal (sources disagree)

Kd: ~16 µM
B2: H3K4me2 peptide labelled with fluorescein (peptide)
chain: ARTK(Me2)QTARKSTGGKA
modifications: not fully specified (N-terminus); also: fluorescein label, C- or N-terminal (sources disagree)
